Where two headings read alike, the source gives them in different places.
T1: FtsY (Escherichia coli), P10121
T1 chain: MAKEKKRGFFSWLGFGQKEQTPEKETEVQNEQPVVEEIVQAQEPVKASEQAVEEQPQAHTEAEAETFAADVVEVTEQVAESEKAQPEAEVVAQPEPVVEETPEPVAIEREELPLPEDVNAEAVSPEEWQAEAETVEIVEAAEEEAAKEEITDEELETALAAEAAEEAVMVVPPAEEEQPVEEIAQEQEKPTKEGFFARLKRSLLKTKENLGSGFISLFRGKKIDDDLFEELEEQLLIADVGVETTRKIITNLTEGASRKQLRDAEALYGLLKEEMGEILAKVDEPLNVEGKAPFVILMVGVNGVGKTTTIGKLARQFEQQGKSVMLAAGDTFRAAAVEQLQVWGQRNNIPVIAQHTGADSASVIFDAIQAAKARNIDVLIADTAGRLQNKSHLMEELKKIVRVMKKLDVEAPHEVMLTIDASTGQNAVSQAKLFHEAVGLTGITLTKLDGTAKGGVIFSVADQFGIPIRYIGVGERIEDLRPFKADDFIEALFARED

B1: Ffh (natural protein)
chain: MFDNLTDRLSRTLRNISGRGRLTEDNVKDTLREVRMALLEADVALPVVREFINRVKEKAVGHEVNKSLTPGQEFVKIVRNELVAAMGEENQTLNLAAQPPAVVLMAGLQGAGKTTSVGKLGKFLREKHKKKVLVVSADVYRPAAIKQLETLAEQVGVDFFPSDVGQKPVDIVNAALKEAKLKFYDVLLVDTAGRLHVDEAMMDEIKQVHASINPVETLFVVDAMTGQDAANTAKAFNEALPLTGVVLTKVDGDARGGAALSIRHITGKPIKFLGVGEKTEALEPFHPDRIASRILGMGDVLSLIEDIESKVDRAQAEKLASKLKKGDGFDLNDFLEQLRQMKNMGGMASLMGKLPGMGQIPDNVKSQMDDKVLVRMEAIINSMTMKERAKPEIIKGSRKRRIAAGCGMQVQDVNRLLKQFDDMQRMMKKMKKGGMAKMMRSMKGMMPPGFPGR
B2: Ffh, P0AGD7 1-453 (natural protein)
chain: B1 chain

Experiments:
[1] = target: ΔEspP peptide labeled with carboxyfluorescein; assay: fluorescence polarisation
[2] = target: ΔEspP peptide labeled with carboxyfluorescein; assay: fluorescence polarisation; remark: listed apart in the source
[3] = target: ΔEspP peptide labeled with carboxyfluorescein; assay: fluorescence polarisation; remark: listed apart in the source
[4] = target: ΔEspP peptide labeled with carboxyfluorescein; assay: fluorescence polarisation; remark: listed apart in the source
[5] = target: T1, FtsY (Escherichia coli), P10121; assay: other fluorescence titration; details: remark: other sources report otherwise

Binder	Kd [1] [µM]	Kd [2] [µM]	Kd [3] [µM]	Kd [4] [µM]	fold change of the association rate with C12E8 against without (with 4.5S RNA) [5] [fold]	fold change of the association rate with ΔEspP* against without (with 4.5S RNA) [5] [fold]	fold change of the dissociation rate with C12E8 against without (with 4.5S RNA) [5] [fold]	fold change of the dissociation rate with ΔEspP* against without (with 4.5S RNA) [5] [fold]
B1	1.5	21.6	19.6	5.5	–	–	–	–
B2	–	–	–	–	70	> 40	23	10
